Publication PMC9872521

Substrate: NCCc1ccc(O)c(O)c1
Assay: cells, lysate or membranes
Conditions: sodium inward-facing conformation favors substrates

B1: human dopamine transporter (hDAT) (Homo sapiens) (protein)
chain: MSKSKCSVGLMSSVVAPAKEPNAVGPKEVELILVKEQNGVQLTSSTLTNPRQSPVEAQDRETWGKKIDFLLSVIGFAVDLANVWRFPYLCYKNGGGAFLVPYLLFMVIAGMPLFYMELALGQFNREGAAGVWKICPILKGVGFTVILISLYVGFFYNVIIAWALHYLFSSFTTELPWIHCNNSWNSPNCSDAHPGDSSGDSSGLNDTFGTTPAAEYFERGVLHLHQSHGIDDLGPPRWQLTACLVLVIVLLYFSLWKGVKTSGKVVWITATMPYVVLTALLLRGVTLPGAIDGIRAYLSVDFYRLCEASVWIDAATQVCFSLGVGFGVLIAFSSYNKFTNNCYRDAIVTTSINSLTSFSSGFVVFSFLGYMAQKHSVPIGDVAKDGPGLIFIIYPEAIATLPLSSAWAVVFFIMLLTLGIDSAMGGMESVITGLIDEFQLLHRHRELFTLFIVLATFLLSLFCVTNGGIYVFTLLDHFAAGTSILFGVLIEAIGVAWFYGVGQFSDDIQQMTGQRPSLYWRLCWKLVSPCFLLFVVVVSIVTFRPPHYGAYIFPDWANALGWVIATSSMAMVPIYAAYKFCSLPGSFREKLAYAIAPEKDRELVDRGEVRQFTLRHWLKV
Km: 2.31 µM
